Patent US9982028B2, “Recombinant human interferon-like proteins” (Novagen Holding Corporation, priority 2007, dated 2018)
Several values for one entry are separate records, joined by “and”; a condition that tells them apart may be missing. Equal entries are not always repeated. Entries after “also recorded” stand apart in the source; their conditions may differ.

Tests used:
[1] = tested on: human liver cancer Hep G2 xenografts; assay: Human liver cancer xenograft model; assay type: in vivo, athymic nude Balb/c mice; details: 30 days; for Tumor weight (mean ± SD): n = 10
[2] = tested on: human colon cancer LS 180 xenografts; assay: Human colon cancer xenograft model; assay type: in vivo, athymic nude Balb/c mice; details: LS 180 xenograft, 28 days; for Tumor weight (X ± SD): n = 10
[3] = tested on: SW 1116 colorectal adenocarcinoma cell line; assay: Anti-proliferative assay, SW 1116; assay type: cell-based, human
[4] = tested on: DLD-1 colorectal adenocarcinoma cell line; assay: Anti-proliferative assay, DLD-1; assay type: cell-based, human
[5] = General condition of the mice during treatment; assay type: in vivo; details: mice with human cancer xenografts, during the treatment period
[6] = tested on: L-428 Hodgkin's lymphoma cell line; assay: Anti-proliferative assay, L-428; assay type: cell-based, human
[7] = tested on: DU 145 prostate carcinoma cell line; assay: Anti-proliferative assay, DU 145; assay type: cell-based, human
A-375 melanoma cell line = assay: Anti-proliferative assay, A-375; assay type: cell-based, human
[8] = tested on: human melanoma A-375 xenografts; assay: Human melanoma xenograft model; assay type: in vivo, athymic nude Balb/c mice; details: A-375 xenograft; for Tumor weight (X ± SD): 30 days (28 days in the source), n = 10
[9] = tested on: KYSE 30 esophagus carcinoma cell line; assay: Anti-proliferative assay, KYSE 30; assay type: cell-based, human
[10] = tested on: PC-3 prostate carcinoma cell line; assay: Anti-proliferative assay, PC-3; assay type: cell-based, human
[11] = tested on: LS174T colorectal adenocarcinoma cell line; assay: Anti-proliferative assay, LS174T; assay type: cell-based, human
[12] = tested on: LS 180 colorectal adenocarcinoma cell line; assay: Anti-proliferative assay, LS 180; assay type: cell-based, human
[13] = tested on: Vesicular Stomatitis Virus (VSV) on WISH cells; assay type: cell-based; details: against VSV on WISH; units with reference to WHO international standards 94/786 and 95/650
HuH-7 hepatoma cell line = assay: Anti-proliferative assay, HuH-7; assay type: cell-based, human
[14] = tested on: MKN 1 gastric adenocarcinoma cell line; assay: Anti-proliferative assay, MKN 1; assay type: cell-based, human
[15] = tested on: HL-60(S) lymphocytic cell line; assay: Anti-proliferative assay, HL-60(S); assay type: cell-based, human
[16] = tested on: human prostate cancer PC-3 xenografts; assay: Human prostate cancer xenograft model; assay type: in vivo, athymic nude Balb/c mice; details: PC-3 xenograft; for Inhibition rate / Tumor weight (mean ± SD): 30 days; for Tumor weight (mean ± SD): n = 10
Description: Colon cancer cell line (LS 180), melanoma cell line (A-375) and liver cancer cell line (Hep G2) were obtained from the American Type Culture Collection (ATCC, Rockville, Md.). Prostate cancer cell line (PC-3) was obtained from German National Resource Centre for Biological Material (DSMZ, Deutsche […] von Mikroorganismen and Zellkulturen, Germany). Lymphocytic cell line (HL 60(s) was purchased from Japanese Collection of Research Bioresources Cell Bank (JCRB, Japan). All cells were cultured according to their instructions (see Table 1). Briefly, LS 180 and Hep G2 were cultured in MEM medium. A-375 was cultured in DMEM. Both media were supplemented with 10% fetal bovine serum (FBS), 2 mM […] U/ml of penicillin, […] of streptomycin, 0.1 mM non-essential amino acids, and 1.0 mM sodium pyruvate. PC-3 and HL 60 (S) cells were cultured in RPMI 1640, supplemented with 10% FBS, 100 U/ml of penicillin, and […] of streptomycin. All cells were maintained in 5% CO2 atmosphere at 37° C. […] For the treatment of 5-FU, 30 mg/kg of 5-FU was i.v. administrated once every two days for a total of 5 times. The groups and treatment doses are summarized below: Once treatment commenced, tumors were measured with a caliper once a week. […] Mice were sacrificed at the day of treatment discontinuation (day 30 after commencement of the treatment). Solid tumors were isolated, photographed, and measured. […] C is the average tumor weight in control group after treatment.

[17] = tested on: PLC/PRF/5 hepatoma cell line; assay: Anti-proliferative assay, PLC/PRF/5; assay type: cell-based, human
[18] = tested on: Hep3B hepatocellular carcinoma cell line; assay: Anti-proliferative assay, Hep3B; assay type: cell-based, human
[19] = tested on: Hep G2 hepatocellular carcinoma cell line; assay: Anti-proliferative assay, Hep G2; assay type: cell-based, human; details: HepG2
[20] = tested on: IPC-298 melanoma cell line; assay: Anti-proliferative assay, IPC-298; assay type: cell-based, human
[21] = tested on: HeLa cervix adenocarcinoma cell line; assay: Anti-proliferative assay, HeLa; assay type: cell-based, human
[22] = tested on: IGR-37 melanoma cell line; assay: Anti-proliferative assay, IGR-37; assay type: cell-based, human
[23] = tested on: C-33A cervix carcinoma cell line; assay: Anti-proliferative assay, C-33A; assay type: cell-based, human
[24] = tested on: A549 lung carcinoma cell line; assay: Anti-proliferative assay, A549; assay type: cell-based, human
[25] = tested on: human leukemia HL 60(s) xenografts; assay: Human leukemia xenograft model; assay type: in vivo, athymic nude Balb/c mice; details: HL 60(s) xenograft, 21 days; for Tumor weight (X ± SD): n = 10
IGR-1 melanoma cell line = assay: Anti-proliferative assay, IGR-1; assay type: cell-based, human

B1: Novaferon: novel recombinant non-naturally occurring human interferon-like protein, 166 amino acids (SEQ ID No: 2), from Type I interferon shuffling library, expressed in E. coli (protein)
chain: CNLSQTHSLGSKRTLMLLAQMGKISLFSCLKDRHDFEFPQEEFDGNQFQKAQAISVLHELIQQTFNLFSTKESSAAWDEGLLDKFRTELYRQLNDLEACMMQEVGVEETPLMNADSILAVKKYFQRITLYLMEKKYSPCAWEVVRVEIMRSLSFSTNLQKRLRGKD
[1]; 1.25 μg/kg daily s.c.
  Inhibition rate: 63.4%
  average tumor volume: 783.2±270.0 mm^3
  Tumor weight (mean ± SD): 0.797 ± 0.397 g
[1]; 12.5 μg/kg daily s.c.
  Inhibition rate: 85.3%
  average tumor volume: 439.3±414.3 mm^3
  Tumor weight (mean ± SD): 0.321 ± 0.300 g
[1]; 125 μg/kg daily s.c.
  Inhibition rate: 96.6%
  average tumor volume: 104.6±56.5 mm^3
  Tumor weight (mean ± SD): 0.074±0.083 g and 0.074 ± 0.083***@ g
[2]; 1.25 μg/kg daily s.c.
  Inhibition rate: 75.0%
  Tumor weight (X ± SD): 1.043 ± 0.433 g
[2]; 12.5 μg/kg daily s.c.
  Inhibition rate: 80.5%
  Tumor weight (X ± SD): 0.815 ± 0.221 g
[2]; 125 μg/kg daily s.c.
  Inhibition rate: 92.5%
  Tumor weight (X ± SD): 0.314 ± 0.086 &&&@@@ g
[3]
  Fold (Novaferon/HuIFN-α2b), increased tumor cell inhibition: 222 fold
[4]
  Fold (Novaferon/HuIFN-α2b), increased tumor cell inhibition: 282 fold
[5]
  general condition of treated mice (eating, behavior, weight loss): did not induce weight loss, activity changes and other negative side-effects; also recorded: normal eating and activity behavior and no weight loss; also recorded: generally ate and behaved normally, and had no weight loss
[6]
  Fold (Novaferon/HuIFN-α2b), increased tumor cell inhibition: 1134 fold
[7]
  Fold (Novaferon/HuIFN-α2b), increased tumor cell inhibition: 36 fold
A-375 melanoma cell line
  Fold (Novaferon/HuIFN-α2b), increased tumor cell inhibition: 733 fold
[8]; 1.25 μg/kg daily s.c.
  Inhibition rate: 40.1%
  Tumor weight (X ± SD): 1.830 ± 0.289 g
[8]; 12.5 μg/kg daily s.c.
  Inhibition rate: 75.0%
  Tumor weight (X ± SD): 0.763±0.187 g and 0.763 ± 0.187***&& $$$ g
[8]; 125 μg/kg daily s.c.
  Inhibition rate: 82.8%
  Tumor weight (X ± SD): 0.527±0.149 g and 0.527 ± 0.149***&&&@@@ g
[9]
  Fold (Novaferon/HuIFN-α2b), increased tumor cell inhibition: 683 fold
[10]
  Fold (Novaferon/HuIFN-α2b), increased tumor cell inhibition: 128 fold
[11]
  Fold (Novaferon/HuIFN-α2b), increased tumor cell inhibition: 74 fold
[12]
  Fold (Novaferon/HuIFN-α2b), increased tumor cell inhibition: 350 fold
[13]
  anti-viral activity: 2.5×10^9 IU/mg
HuH-7 hepatoma cell line
  Fold (Novaferon/HuIFN-α2b), increased tumor cell inhibition: 58 fold
[14]
  Fold (Novaferon/HuIFN-α2b), increased tumor cell inhibition: 207 fold
[15]
  Fold (Novaferon/HuIFN-α2b), increased tumor cell inhibition: 306 fold
[16]; 1.25 μg/kg daily s.c.
  Inhibition rate: 35.0%
  Tumor weight (mean ± SD): 1.266 ± 0.457 g
[16]; 12.5 μg/kg daily s.c.
  Inhibition rate: 61.0%
  Tumor weight (mean ± SD): 0.759 ± 0.574 g
[16]; 125 μg/kg daily s.c.
  Inhibition rate: 95.3% and 95.1%
  Tumor weight (mean ± SD): 0.09±0.081 g and 0.091±0.081 g and 0.091 ± 0.081***@@@ g
[16]; 125 μg/kg daily s.c., day 28
  average volume of tumor mass: 107.9±68.7 mm^3
[16]; 125 μg/kg daily s.c., day 30
  average volume of tumor mass: 122.1±100.7 mm^3
[17]
  Fold (Novaferon/HuIFN-α2b), increased tumor cell inhibition: 16 fold
[18]
  Fold (Novaferon/HuIFN-α2b), increased tumor cell inhibition: 58 fold
[19]
  Fold (Novaferon/HuIFN-α2b), increased tumor cell inhibition: 43 fold
[20]
  Fold (Novaferon/HuIFN-α2b), increased tumor cell inhibition: 70 fold
[21]
  Fold (Novaferon/HuIFN-α2b), increased tumor cell inhibition: 141 fold
[22]
  Fold (Novaferon/HuIFN-α2b), increased tumor cell inhibition: 109 fold
[23]
  Fold (Novaferon/HuIFN-α2b), increased tumor cell inhibition: 143 fold
[24]
  Fold (Novaferon/HuIFN-α2b), increased tumor cell inhibition: 19 fold
[25]; 1.25 μg/kg daily s.c.
  Inhibition rate: 43.8%
  Tumor weight (X ± SD): 2.091 ± 0.653 g
[25]; 12.5 μg/kg daily s.c.
  Inhibition rate: 55.2%
  Tumor weight (X ± SD): 1.668 ± 0.665 g
[25]; 125 μg/kg daily s.c.
  Inhibition rate: 80.4%
  Tumor weight (X ± SD): 0.729 ± 0.332***@ g
IGR-1 melanoma cell line
  Fold (Novaferon/HuIFN-α2b), increased tumor cell inhibition: 876 fold
